# Laboratory results published in patent US20210277126A1 (LEGEND BIOTECH IRELAND, published 2021).
# T1: human CLL1 ECD (65-265) (human, UniProt Q5QGZ9 65-265)
# T1 construct: Expressed in 293-F cells and purified by IMAC; also called huCLL1; recombinant human CLL1 protein
# T1 sequence: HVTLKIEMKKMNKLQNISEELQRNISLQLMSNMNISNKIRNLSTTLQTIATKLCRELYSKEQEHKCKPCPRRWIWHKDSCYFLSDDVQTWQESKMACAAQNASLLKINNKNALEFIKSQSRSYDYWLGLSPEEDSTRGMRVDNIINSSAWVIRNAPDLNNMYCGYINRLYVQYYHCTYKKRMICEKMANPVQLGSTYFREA
# T2: cynomolgus monkey CLL1 ECD (65-265) (cynomolgus monkey)
# T2 construct: Expressed in 293-F cells and purified by IMAC; also called cynoCLL1; recombinant cynomolgus monkey CLL1 protein
# T2 chain: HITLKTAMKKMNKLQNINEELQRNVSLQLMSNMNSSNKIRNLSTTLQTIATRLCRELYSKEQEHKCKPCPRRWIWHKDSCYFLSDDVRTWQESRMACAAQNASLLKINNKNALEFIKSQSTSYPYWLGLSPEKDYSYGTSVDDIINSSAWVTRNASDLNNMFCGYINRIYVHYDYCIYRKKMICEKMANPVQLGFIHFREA
# Legend:
# human CLL1 ECD (65-265) = molecular target: T1, human CLL1 ECD (65-265); assay: SPR (Biacore T200), sdAb supernatant, recombinant human CLL1
# Protocol: (§1) The unique clones were grown in 2YT medium and induced by IPTG for sdAb expression in the supernatant. The supernatants of unique binders were analyzed for their ability to bind to a CLL1-expressing HKE293/huCLL-1 cell line and cancer cell line AML193 using a FACS assay. Affinities of selected binders in supernatants to recombinant human and cynomolgus monkey CLL1 proteins were determined by surface plasmon resonance (SPR) on a BIACORE® T200 instrument. The dissociation phase was used to calculate the kd values for each sdAb.
# [1] = molecular target: T2, cynomolgus monkey CLL1 ECD (65-265); assay: SPR (Biacore T200), sdAb supernatant, recombinant cynomolgus CLL1
# Protocol: as §1
Kd (human CLL1 ECD (65-265)),Kd [1],Binder
0.37 nM,0.24 nM,"AS83431 sdAb (VHH, Camel sdAb tested as E. coli culture supernatant; not shown: C-terminal His-tag encoded by the soluble expression vector) VHH: QVRLVESGGGSVQSGGSLRLSCAASGYARSSTCLGWFRQAPGKEVEGVAIIGRDGSTGYADSVKGRFTISQDNAKNTLYLHMDSLKPEDTAMYYCAAVEGGCEVSEGTGEQQLAYWGQGTQVTVSS"
7.3 nM,0.63 nM,"AS83309 sdAb (VHH, Camel sdAb tested as E. coli culture supernatant; not shown: C-terminal His-tag encoded by the soluble expression vector) VHH: EVQLVESGGDLVRPGGSLRLSCAASGFTFSIYDMNWVRQAPGKGLEWVAGISGNGYSTSYAESVKGRFTISKDNAKNTVYLQLSSLKFEDTAMYYCVRGGEKWDENDLRRKGQGTQVTVSS"
31 nM,19 nM,"AS83591 sdAb (VHH, Camel sdAb tested as E. coli culture supernatant; not shown: C-terminal His-tag encoded by the soluble expression vector) VHH: QVQLVESGGGLVQPGGSLRLSCAASGFLFSIYDMNWVRQAPGKGVEWIAGITNNEHTTAYADSVKGRFTISRDNTKNTLFLQMNSLKPEDTAMYYCQRDDGQVRGQGTQVTVSS"
0.44 nM,0.22 nM,"AS83791 sdAb (VHH, Tested as E. coli culture supernatant; not shown: C-terminal His-tag encoded by the soluble expression vector) VHH: QVKLVESGGGLVQPGGSLRLSCVASGFAFSSADMSWVRQAPGKGVEAVSVINRDGASTYYADSVKGRFTISRDNAKSTLYLQMNSLKPEDTAMYHCAVVPENEYESGSYNYWGQGTQVTVSS"
2 nM,1.4 nM,"AS83478 sdAb (VHH, Camel sdAb tested as E. coli culture supernatant; not shown: C-terminal His-tag encoded by the soluble expression vector) VHH: QVHLMESGGGLVQPGESLRLSCAASGFIFANYEMSWVRQAPGKVLEWVSGINSRGNATYYADSVKGRFTISRDNAEHTLYLQMNSLKPEDTAMYHCVVGGMTTDQGSPDFYWGQGTQVTVSS"

# The remaining lines, values behind:
Binder,Kd (human CLL1 ECD (65-265)),Kd [1]
"AS82658 sdAb (VHH, Camel sdAb tested as E. coli culture supernatant; not shown: C-terminal His-tag encoded by the soluble expression vector) VHH: QVQLVESGGGSVQAGGALSLSCAASGYTVRIDYMGWYRQTPGKGREPVATIASNGGTAYADSVEGRFTISQDNAKNSVYLQMNTLKPGDTAMYYCAAGTWPTLTYFGQGTQVTVSS",1.6 nM,1.9 nM
"AS82718 sdAb (VHH, Camel sdAb tested as E. coli culture supernatant; not shown: C-terminal His-tag encoded by the soluble expression vector) VHH: QVQLAESGGGLVQTGGSLRLSCTASGLNFGLYAMGWFRQAPGKEREGVSCINGGGGITVYSDFVKSRFTISRDNAKNTLYLQMNSLKPDDTATYYCAADRSPFGSCSSDWSRSSDWSRMAEKFGYWGQGTQVTVSS",24 nM,2.6 nM
"AS82480 sdAb (VHH, Camel sdAb tested as E. coli culture supernatant; not shown: C-terminal His-tag encoded by the soluble expression vector) VHH: EVQLVESGGGSVQAGGSLRLSCAASGVTYSSACMGWFRQAPGKGREVVAVLYAGGSTTHYASSVKERFTISQDNAKNTVYLQMNSLKPEDTAVYYCAAALGDRSSCEWRYWGQGTQVTVSS",1.5 nM,47 nM
"AS83457 sdAb (VHH, Camel sdAb tested as E. coli culture supernatant; not shown: C-terminal His-tag encoded by the soluble expression vector) VHH: QVQLVESGGGLVQPGGSLRLSCAASGFFFSIYDMNWFRQAPGKGLEWVSGITGNGYTTAYADSVKGRFTISRDNAKNTLYLQLNSLKSEDTAMYYCAQGSNRGRGTQVTVSS",31 nM,19 nM
"AS83010 sdAb (VHH, Camel sdAb tested as E. coli culture supernatant; not shown: C-terminal His-tag encoded by the soluble expression vector) VHH: QVQLVESGGGLVQPGGSLRLSCVASGFFFSAYDMNWFRQAPGKGLEWVSGITGNGYTTAYADSVKGRFTISRDNAKNTLYLQLNSLKSEDTAMYYCTEGDNRGQGTQVTVSS",8.4 nM,3.2 nM
"AS82494 sdAb (VHH, Camel sdAb tested as E. coli culture supernatant; not shown: C-terminal His-tag encoded by the soluble expression vector) VHH: QVQLVESGGGLVQPGGSLRLSCAASGFTFSVYDMNWFRQAPGKGLEWVSGITGNGYTTSYADSVKGRFTISRDNAKNTLYLQLNSLKSEDTAMYYCAKETNRGQGTQVTVSS",21 nM,98 nM
"AS83180 sdAb (VHH, Camel sdAb tested as E. coli culture supernatant; not shown: C-terminal His-tag encoded by the soluble expression vector) VHH: QVQLVESGGGSVQAGGSLRLSCVVSAATNCRYIAWYRQAPGKAREFVSTLGSDGNTNYADSVKGRFTISQGNIKNMAYLEMNSLKPEDTGMYYCGTRCQIGDDWRSSDWAQGTQVTVSS",3 nM,2.4 nM
"AS82544 sdAb (VHH, Camel sdAb tested as E. coli culture supernatant; not shown: C-terminal His-tag encoded by the soluble expression vector) VHH: EVQLVESGGALVQPGGSLRLSCTASGFLFRVYDMNWVRQAPGKGVEWIVGITNNGYTTAYADSVKGRFTISRDNTENTLFLQMNSLKPEDTAMYYCQTDNGRVRGQGTQVTVSS",8.6 nM,39 nM
"AS83183 sdAb (VHH, Camel sdAb tested as E. coli culture supernatant; not shown: C-terminal His-tag encoded by the soluble expression vector) VHH: QVHLVESGGGSVQSGGSLRLSCAASGYAYRSYCMGWFRQAPGKVLEGVAAIESDGTTTYADSVMGRFTISQDNAKNALYLQMNSLKPEDTAMYHCAAVKGSCDSASSDTPSYWGQGTQVTVSS",1 nM,0.26 nM
"AS82505 sdAb (VHH, Camel sdAb tested as E. coli culture supernatant; not shown: C-terminal His-tag encoded by the soluble expression vector) VHH: QVQLAESGGGLVQPGGSLRLSCVASGFTFSSYDMSWVRQAPGKGVEWVSTINSGGGSTYYAESAKGRFTISRDNAKNTLYLQLNSLKTEDTAMYYCVKGFPDDDGPGELSREYNYWGQGTQVTVSS",0.83 nM,0.59 nM
